Target: HIV-1 gp120 (HIV-1)
Experiment: ELISA, coated gp120; binding relative to scytovirin

## SD2 (residues 49-95 of scytovirin with a substitution of serine at position 55) (peptide)
  percent binding in comparison to scytovirin: 50%
